Measurements from PMC3417467.
Like-named read-outs stand apart in the source and are kept apart here.

Assays:
Experiment in all cases: competitive cell adhesion assay
[1] = target: integrins on WM-115 cells (mainly integrin α5β1, αVβ3, and αVβ5)
[2] = target: integrins on WM-115 cells (mainly integrin α5β1, αVβ3, and αVβ5); remark: listed apart in the source
[3] = target: integrins on WM-115 cells (mainly integrin α5β1, αVβ3, and αVβ5); remark: listed apart in the source
[4] = target: integrins on WM-115 cells (mainly integrin α5β1, αVβ3, and αVβ5); remark: listed apart in the source
[5] = target: integrins on WM-115 cells (mainly integrin α5β1, αVβ3, and αVβ5); remark: listed apart in the source
[6] = target: integrins on WM-115 cells (mainly integrin α5β1, αVβ3, and αVβ5); remark: listed apart in the source

| Binder | IC50 [1] [µM] | IC50 [2] [µM] | IC50 [3] [µM] | IC50 [4] [µM] | IC50 [5] [µM] | IC50 [6] [µM] |
| --- | --- | --- | --- | --- | --- | --- |
| ANFEANELFFISEDV [linear peptide 6 (…)] | 239 | > 1000 | 9 | – | – | – |
| FEANE (HELM PEPTIDE1{F.E.A.N.[dE]}$PEPTIDE1,PEPTIDE1,1:R1-5:R2$$$V2.0; SMILES C[C@@H]1NC(=O)[C@H](CCC(=O)O)NC(=O)[C@H](Cc2ccccc2)NC(=O)[C@@H](CCC(=O)O)NC(=O)[C@H](CC(N)=O)NC1=O) [cyclopeptide-5 c-(-FEANe-)] | > 1000 | > 1000 | > 1000 | – | – | – |
| FEANE (HELM PEPTIDE1{F.[dE].A.N.E}$PEPTIDE1,PEPTIDE1,1:R1-5:R2$$$V2.0; SMILES C[C@@H]1NC(=O)[C@@H](CCC(=O)O)NC(=O)[C@H](Cc2ccccc2)NC(=O)[C@H](CCC(=O)O)NC(=O)[C@H](CC(N)=O)NC1=O) [cyclopeptide-2 c-(-FeANE-)] | 54 to 430 | > 1000 | 30 to 530 | – | – | – |
| FEANE (HELM PEPTIDE1{F.E.[dA].N.E}$PEPTIDE1,PEPTIDE1,1:R1-5:R2$$$V2.0; SMILES C[C@H]1NC(=O)[C@H](CCC(=O)O)NC(=O)[C@H](Cc2ccccc2)NC(=O)[C@H](CCC(=O)O)NC(=O)[C@H](CC(N)=O)NC1=O) [cyclopeptide-3 c-(-FEaNE-)] | > 1000 | > 1000 | > 1000 | – | – | – |
| FEANE (HELM PEPTIDE1{[dF].E.A.N.E}$PEPTIDE1,PEPTIDE1,1:R1-5:R2$$$V2.0; SMILES C[C@@H]1NC(=O)[C@H](CCC(=O)O)NC(=O)[C@@H](Cc2ccccc2)NC(=O)[C@H](CCC(=O)O)NC(=O)[C@H](CC(N)=O)NC1=O) [cyclopeptide-1 c-(-fEANE-)] | > 1000 | > 1000 | 43 to 340 | – | – | – |
| FEANE (HELM PEPTIDE1{F.E.A.[dN].E}$PEPTIDE1,PEPTIDE1,1:R1-5:R2$$$V2.0; SMILES C[C@@H]1NC(=O)[C@H](CCC(=O)O)NC(=O)[C@H](Cc2ccccc2)NC(=O)[C@H](CCC(=O)O)NC(=O)[C@@H](CC(N)=O)NC1=O) [cyclopeptide-4 c-(-FEAnE-)] | > 1000 | > 1000 | > 1000 | – | – | – |
| RGDLA (HELM PEPTIDE1{R.G.D.[dL].A}$PEPTIDE1,PEPTIDE1,1:R1-5:R2$$$V2.0; SMILES CC(C)C[C@H]1NC(=O)[C@H](CC(=O)O)NC(=O)CNC(=O)[C@H](CCCNC(=N)N)NC(=O)[C@H](C)NC1=O) [cyclopeptide-7 c-(-RGDlA-)] | – | 2.39 | – | 0.88 | 1.65 | 0.67 |
